Molecular target: CD91 (mouse) (UniProt Q91ZX7)
Assay: cell-based or functional assay

Chain of UniProt Q91ZX7 (Q91ZX7 20-4545): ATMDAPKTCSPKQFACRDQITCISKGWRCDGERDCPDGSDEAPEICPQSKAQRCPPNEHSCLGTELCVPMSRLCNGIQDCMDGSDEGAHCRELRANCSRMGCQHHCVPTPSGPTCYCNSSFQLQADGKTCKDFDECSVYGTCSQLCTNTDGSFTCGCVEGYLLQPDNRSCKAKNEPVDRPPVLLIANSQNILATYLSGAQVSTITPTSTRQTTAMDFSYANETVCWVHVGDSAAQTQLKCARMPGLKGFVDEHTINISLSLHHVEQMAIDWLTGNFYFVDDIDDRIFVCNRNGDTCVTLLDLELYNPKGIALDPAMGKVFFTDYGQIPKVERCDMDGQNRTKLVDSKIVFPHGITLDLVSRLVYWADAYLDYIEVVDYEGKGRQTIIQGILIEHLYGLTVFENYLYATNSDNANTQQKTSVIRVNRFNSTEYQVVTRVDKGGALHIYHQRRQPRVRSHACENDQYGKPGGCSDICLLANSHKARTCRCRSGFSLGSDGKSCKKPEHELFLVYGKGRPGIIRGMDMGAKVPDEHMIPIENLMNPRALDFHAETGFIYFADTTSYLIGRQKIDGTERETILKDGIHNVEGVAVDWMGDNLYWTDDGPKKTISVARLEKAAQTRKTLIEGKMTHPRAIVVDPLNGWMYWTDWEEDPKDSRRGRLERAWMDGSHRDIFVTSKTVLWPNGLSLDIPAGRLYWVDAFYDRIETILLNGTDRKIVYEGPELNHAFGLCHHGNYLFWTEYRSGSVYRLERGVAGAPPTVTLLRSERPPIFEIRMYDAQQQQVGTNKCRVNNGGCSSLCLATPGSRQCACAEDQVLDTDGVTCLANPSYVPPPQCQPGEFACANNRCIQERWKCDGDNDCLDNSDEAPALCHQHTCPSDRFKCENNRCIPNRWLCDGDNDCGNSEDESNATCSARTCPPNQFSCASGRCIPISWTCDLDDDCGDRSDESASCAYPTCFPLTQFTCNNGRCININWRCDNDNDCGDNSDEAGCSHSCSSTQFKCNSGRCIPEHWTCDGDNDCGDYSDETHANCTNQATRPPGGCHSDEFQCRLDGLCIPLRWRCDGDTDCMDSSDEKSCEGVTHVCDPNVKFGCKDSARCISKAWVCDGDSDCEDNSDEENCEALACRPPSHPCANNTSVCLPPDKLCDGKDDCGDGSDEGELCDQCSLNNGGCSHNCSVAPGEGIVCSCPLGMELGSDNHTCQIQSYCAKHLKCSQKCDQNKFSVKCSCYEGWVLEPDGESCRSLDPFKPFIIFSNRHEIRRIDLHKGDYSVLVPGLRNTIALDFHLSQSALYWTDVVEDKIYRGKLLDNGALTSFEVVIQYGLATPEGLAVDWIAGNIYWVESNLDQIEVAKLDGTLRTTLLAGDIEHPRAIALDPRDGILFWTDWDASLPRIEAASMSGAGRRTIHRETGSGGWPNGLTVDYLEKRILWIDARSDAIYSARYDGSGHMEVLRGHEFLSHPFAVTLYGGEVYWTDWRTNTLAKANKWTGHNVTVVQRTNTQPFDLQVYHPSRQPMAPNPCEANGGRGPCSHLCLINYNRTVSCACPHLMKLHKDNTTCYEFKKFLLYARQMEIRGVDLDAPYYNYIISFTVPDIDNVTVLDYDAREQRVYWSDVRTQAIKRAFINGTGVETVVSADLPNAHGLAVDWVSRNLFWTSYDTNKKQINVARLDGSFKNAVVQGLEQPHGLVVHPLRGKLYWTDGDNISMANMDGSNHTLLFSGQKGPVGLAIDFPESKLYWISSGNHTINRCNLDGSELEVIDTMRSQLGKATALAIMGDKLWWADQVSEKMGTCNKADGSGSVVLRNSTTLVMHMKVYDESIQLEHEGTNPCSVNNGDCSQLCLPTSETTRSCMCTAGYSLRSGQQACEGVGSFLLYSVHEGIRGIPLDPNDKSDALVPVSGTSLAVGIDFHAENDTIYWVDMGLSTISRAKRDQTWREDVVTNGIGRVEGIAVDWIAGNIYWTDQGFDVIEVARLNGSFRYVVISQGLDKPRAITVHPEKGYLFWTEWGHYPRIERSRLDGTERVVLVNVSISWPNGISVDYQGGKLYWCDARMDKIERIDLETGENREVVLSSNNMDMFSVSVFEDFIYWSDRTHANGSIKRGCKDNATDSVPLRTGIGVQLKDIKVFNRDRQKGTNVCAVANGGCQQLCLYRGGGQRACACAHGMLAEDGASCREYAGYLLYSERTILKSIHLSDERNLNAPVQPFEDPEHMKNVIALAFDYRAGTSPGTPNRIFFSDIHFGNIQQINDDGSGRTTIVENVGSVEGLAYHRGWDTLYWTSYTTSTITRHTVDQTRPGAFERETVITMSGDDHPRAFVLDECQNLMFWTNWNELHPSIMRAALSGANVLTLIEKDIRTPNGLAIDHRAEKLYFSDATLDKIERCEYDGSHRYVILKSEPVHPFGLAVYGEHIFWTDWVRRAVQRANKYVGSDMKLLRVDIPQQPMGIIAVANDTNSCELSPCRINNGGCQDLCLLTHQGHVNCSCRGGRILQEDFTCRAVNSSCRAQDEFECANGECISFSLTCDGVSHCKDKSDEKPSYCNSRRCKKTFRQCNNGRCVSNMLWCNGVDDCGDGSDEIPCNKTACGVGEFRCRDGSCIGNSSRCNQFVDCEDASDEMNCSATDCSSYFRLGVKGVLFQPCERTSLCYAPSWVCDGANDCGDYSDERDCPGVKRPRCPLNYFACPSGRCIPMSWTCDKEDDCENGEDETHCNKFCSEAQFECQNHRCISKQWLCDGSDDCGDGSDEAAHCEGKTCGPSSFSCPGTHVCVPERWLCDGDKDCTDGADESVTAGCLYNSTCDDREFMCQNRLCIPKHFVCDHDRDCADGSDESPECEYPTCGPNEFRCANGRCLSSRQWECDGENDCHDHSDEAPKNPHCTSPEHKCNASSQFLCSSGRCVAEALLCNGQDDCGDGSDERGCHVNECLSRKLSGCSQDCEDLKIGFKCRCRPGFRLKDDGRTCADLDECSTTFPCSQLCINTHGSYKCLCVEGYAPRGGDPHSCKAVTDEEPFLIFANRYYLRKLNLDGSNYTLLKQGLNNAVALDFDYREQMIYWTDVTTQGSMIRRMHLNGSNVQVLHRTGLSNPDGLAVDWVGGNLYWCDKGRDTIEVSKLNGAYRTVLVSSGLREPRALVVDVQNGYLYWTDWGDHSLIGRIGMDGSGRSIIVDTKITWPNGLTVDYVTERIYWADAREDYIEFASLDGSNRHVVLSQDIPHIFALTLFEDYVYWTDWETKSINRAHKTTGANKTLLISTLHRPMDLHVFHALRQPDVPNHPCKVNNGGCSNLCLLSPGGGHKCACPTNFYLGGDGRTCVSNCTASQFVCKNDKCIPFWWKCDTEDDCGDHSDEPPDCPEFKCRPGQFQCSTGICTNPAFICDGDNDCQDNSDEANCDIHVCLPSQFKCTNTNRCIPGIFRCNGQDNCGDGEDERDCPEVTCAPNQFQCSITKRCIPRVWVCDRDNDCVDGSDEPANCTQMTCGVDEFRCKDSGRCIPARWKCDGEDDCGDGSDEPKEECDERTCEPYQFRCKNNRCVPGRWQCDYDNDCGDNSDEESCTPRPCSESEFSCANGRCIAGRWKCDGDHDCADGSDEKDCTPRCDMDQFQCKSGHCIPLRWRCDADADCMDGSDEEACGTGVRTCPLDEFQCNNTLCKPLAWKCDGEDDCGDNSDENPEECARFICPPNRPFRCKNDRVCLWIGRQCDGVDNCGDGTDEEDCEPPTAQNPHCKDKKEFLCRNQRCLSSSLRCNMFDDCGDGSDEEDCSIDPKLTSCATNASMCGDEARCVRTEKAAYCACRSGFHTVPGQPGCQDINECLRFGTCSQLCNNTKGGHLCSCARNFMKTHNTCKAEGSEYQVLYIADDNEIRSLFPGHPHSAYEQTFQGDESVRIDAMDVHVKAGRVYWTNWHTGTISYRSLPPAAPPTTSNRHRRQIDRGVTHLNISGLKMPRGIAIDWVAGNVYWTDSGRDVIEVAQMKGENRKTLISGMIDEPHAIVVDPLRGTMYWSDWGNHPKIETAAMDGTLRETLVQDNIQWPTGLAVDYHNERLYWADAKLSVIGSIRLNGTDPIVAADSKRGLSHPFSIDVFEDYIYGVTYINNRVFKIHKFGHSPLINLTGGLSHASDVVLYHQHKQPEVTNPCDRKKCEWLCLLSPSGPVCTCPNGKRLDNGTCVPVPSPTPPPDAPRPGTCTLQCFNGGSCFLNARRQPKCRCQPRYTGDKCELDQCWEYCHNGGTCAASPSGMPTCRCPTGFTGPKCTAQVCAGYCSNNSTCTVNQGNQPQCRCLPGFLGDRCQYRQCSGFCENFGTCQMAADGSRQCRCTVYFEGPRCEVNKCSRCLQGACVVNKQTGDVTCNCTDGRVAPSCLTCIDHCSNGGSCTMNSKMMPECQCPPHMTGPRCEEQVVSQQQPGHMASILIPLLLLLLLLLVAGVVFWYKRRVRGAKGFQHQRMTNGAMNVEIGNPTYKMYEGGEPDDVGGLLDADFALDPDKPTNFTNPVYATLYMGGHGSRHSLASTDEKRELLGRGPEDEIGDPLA

IFN alpha MFI (Fold Change), RAW264.7 M1 macrophages pulsed with calreticulin 10 ug/ml for 20 min: 7.5 fold
IFN beta MFI (Fold Change), RAW264.7 M1 macrophages pulsed with calreticulin 10 ug/ml for 20 min: 7 fold
IL-12 MFI (Fold Change), RAW264.7 M1 macrophages pulsed with calreticulin 10 ug/ml for 20 min: 3.5 fold
IL-15 MFI (Fold Change), RAW264.7 M1 macrophages pulsed with calreticulin 10 ug/ml for 20 min: 3.5 fold
Substance: calreticulin (CRT) (ligand)
